{
  "source": "paper PMC2566886",
  "biological_target": "human Nudt16 protein (human) (UniProt Q96DE0)",
  "experiment": "cross-linking",
  "data": [
    {"substance": "human Nudt16 protein (from UniProt Q96DE0 1-195) (enzyme)", "values": [
      {"measurement": "stoichiometry N", "value": 2}
    ]}
  ]
}
